Source: patent US20190167760A1 (SWEDISH ORPHAN BIOVITRUM AB PUBL, published 2019)

Tests used:
[1] = molecular target: T1, Human complement protein C5 (human, UniProt P01031 19-673; P01031 678-1676)
[2] = molecular target: T1, Human complement protein C5; experiment: cell-based or functional assay

T1 sequence (P01031 19-673, chain 1 of 2): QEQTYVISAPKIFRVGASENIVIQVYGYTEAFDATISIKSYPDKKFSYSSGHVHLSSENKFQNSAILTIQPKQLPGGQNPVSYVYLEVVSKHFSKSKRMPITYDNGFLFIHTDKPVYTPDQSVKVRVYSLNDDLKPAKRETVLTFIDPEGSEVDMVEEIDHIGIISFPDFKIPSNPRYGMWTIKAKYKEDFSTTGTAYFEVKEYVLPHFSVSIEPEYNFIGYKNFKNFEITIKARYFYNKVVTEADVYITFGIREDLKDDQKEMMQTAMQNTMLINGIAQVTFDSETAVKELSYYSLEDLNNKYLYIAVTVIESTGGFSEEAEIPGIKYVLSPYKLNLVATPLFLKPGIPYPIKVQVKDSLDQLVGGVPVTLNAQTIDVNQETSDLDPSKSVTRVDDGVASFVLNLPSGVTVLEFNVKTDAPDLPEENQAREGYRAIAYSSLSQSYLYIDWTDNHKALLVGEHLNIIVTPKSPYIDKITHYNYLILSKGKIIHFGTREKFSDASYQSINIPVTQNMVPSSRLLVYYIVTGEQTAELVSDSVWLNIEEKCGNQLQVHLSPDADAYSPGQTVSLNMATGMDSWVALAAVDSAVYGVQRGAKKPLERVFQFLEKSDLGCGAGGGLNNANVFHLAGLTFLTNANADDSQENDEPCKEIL
T1 sequence (P01031 678-1676, chain 2 of 2): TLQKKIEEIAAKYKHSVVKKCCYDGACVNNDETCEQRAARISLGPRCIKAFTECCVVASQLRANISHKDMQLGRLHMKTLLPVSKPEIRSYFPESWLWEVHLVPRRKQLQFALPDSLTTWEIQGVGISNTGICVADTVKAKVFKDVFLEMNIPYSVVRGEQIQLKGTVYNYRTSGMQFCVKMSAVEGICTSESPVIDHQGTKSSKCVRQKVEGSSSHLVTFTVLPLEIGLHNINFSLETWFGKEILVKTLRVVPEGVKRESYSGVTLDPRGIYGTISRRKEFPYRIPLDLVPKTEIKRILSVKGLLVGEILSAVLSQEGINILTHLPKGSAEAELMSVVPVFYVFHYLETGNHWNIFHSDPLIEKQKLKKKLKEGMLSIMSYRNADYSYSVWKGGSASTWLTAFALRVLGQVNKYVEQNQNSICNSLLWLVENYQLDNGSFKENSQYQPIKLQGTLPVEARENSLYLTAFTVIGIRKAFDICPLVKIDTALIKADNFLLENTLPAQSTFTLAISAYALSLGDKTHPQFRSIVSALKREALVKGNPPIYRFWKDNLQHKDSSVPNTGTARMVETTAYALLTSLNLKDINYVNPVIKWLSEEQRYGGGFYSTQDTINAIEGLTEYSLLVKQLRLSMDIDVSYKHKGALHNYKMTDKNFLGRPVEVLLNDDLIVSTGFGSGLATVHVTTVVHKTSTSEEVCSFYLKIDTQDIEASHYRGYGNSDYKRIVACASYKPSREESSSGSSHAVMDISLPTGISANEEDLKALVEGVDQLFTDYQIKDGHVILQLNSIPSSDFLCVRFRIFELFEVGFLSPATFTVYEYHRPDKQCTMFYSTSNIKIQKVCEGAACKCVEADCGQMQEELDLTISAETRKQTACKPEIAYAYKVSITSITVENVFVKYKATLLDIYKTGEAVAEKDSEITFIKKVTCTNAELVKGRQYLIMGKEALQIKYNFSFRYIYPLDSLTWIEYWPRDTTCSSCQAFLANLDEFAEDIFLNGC

B1: Ornithodoros moubata Complement Inhibitor with a His6 tag in the C-terminus (other)
chain: MDSESDCTGSEPVDAFQAFSEGKEAYVLVRSTDPKARDCLKGEPAGEKQDNTLPVMMTFKNGTDWASTDWTFTLDGAKVTATLGNLTQNREVVYDSQSHHCHVDKVEKEVPDYEMWMLDAGGLEVEVECCRQKLEELASGRNQMYPHLKDCGGGGSENLYFQGSHHHHHH
IC50 [1]: 1.5 nM
IC50 of inhibition of hemolysis of antibody sensitized sheep erythrocytes [2]: 0.3 to 0.5 nM
